According to patent EP0799050B1, “RADIOLABELED ANNEXIN-GALACTOSE CLUSTER CONJUGATES” (NEORX CORPORATION, priority 1994, dated 1996):

Test: blood clearance in the swine model
Conditions: in vivo
Protocol: Annexin V-galactose was radiolabeled with technetium-99m using a diamide dimercaptide (N2S2) chelate as described by Kasina et. al., J. Nucl. Med. 32: 1445-51, 1991. The preformed active ester chelate was diluted with 2.0 ml water and purified before conjugation to annexin V-galactose using a modified conditioned C-18 column (commercially available from J.T. Baker), as described by Fritzberg et. al., Proc. Natl. Acad. Sci. USA 85: 4025-29, 1988, washing with 2.0 ml water eight times followed by drying the column for 5 min and eluting with 100% acetonitrile. The solvent was removed under a steady stream of N2. Then 0.15 ml of PBS, 0.35 ml of annexin V-galactose (4.7:1 galactose:annexin V) at 1.0 mg/ml, and 0.2 ml of 0.2M bicarbonate buffer (pH 10.0) were added for conjugation to Tc-99m-N2S2-TFP ester. […] Fractions of 1.0 ml were collected, and fractions containing annexin V were pooled. Protein concentration was determined by UV absorption at 280 nm. […] The ITLC sheets were cut into two halves, and each half was counted in a gamma counter or a dose calibrator. […] An animal model, as previously described in Example III, was employed to evaluate blood clearance of the molecules.

## Tc-99m-annexin V: annexin V radiolabeled with Tc-99m by a diamide dimercaptide N2S2 chelate (Example I)
  %ID/g a: a = 0.0389 %ID/g
  %ID/g b: b = 0.0300 %ID/g
  t1/2 a: a = 9.6 min
  t1/2 b: b = 46 min
